Measurements taken from the supplement of paper PMC9170038.

Tested on: MS2 coat protein
Assay: apparent KD of MS2 coat protein; designed switch direction (-1 OFF switch, 1 ON switch): 1; higher = weaker reporter binding
Outline: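 Apparent KD, taken as the median over clusters for each design, was obtained by curve-fitting normalised cluster fluorescence. Designed RNA switches had been transcribed on Illumina chips by stalled E. coli RNA polymerase and titrated with SNAP-549-labelled MS2 coat protein, doubling from 0.7 or 1.5 nM to 3 µM.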

[1] = Eterna round: R95, input ligand: FMN 200 uM
[2] = Eterna round: R95, input ligand: microRNA oligo, concentration not stated
[3] = Eterna round: R95, input ligand: none
[4] = input ligand: microRNA oligo, concentration not stated

Sequence: UGUCCAGCCUGAGCUGGACAAAAGCAUGUACAUGAGGAUCACCCAUGUUCAUGUACAAGCUUUUUGCUCGUCUUAAG [salish99_208a_r3_032] (puzzle: Sensor for hsa-mir-208a)
- apparent KD of MS2 coat protein [1]: 547 nM
- apparent KD of MS2 coat protein [2]: 13.9 nM
- apparent KD of MS2 coat protein [3]: 533 nM

Sequence: GACAAUCUAUCUGAGGAUAUCAUGAAUAAAACAUGAGGAUCACCCAUGUGCAGGAUAACUGCAAAUGAGAAGGCAGAUAGAUUGG [Mat - Same State 2 - Mod - D9] (puzzle: Same State 2)
- apparent KD of MS2 coat protein [1]: 9.21 nM
- apparent KD of MS2 coat protein [2]: 20 nM
- apparent KD of MS2 coat protein [3]: 18 nM

Sequence: CUAAAACAUGAGGAUCACCCAUGUCAACAAAGUCGAGGAUAUGGGCAAAUAAAAUAAGAACCAGAAGGCGAAUAAU [salish99_SS1_r3_012] (puzzle: Same State 1)
- apparent KD of MS2 coat protein [1]: 42.3 nM
- apparent KD of MS2 coat protein [2]: 422 nM
- apparent KD of MS2 coat protein [3]: 485 nM

Sequence: GUGGCGGGUUGAGGAUAUUGGUUGCCUAUGUUUAACAUGAGGAUCACCCAUGUGGGUUGCGGUUUCGAGAAGGUAGGUUGCUGG [salish99_SSNG2_r04_046] (Eterna round: R96, puzzle: Same State NG 2)
- apparent KD of MS2 coat protein (input ligand: FMN 200 uM): 228 nM
- apparent KD of MS2 coat protein [4]: 109 nM
- apparent KD of MS2 coat protein (input ligand: none): 188 nM

Sequence: GUUACAUGAGGAUCACCCAUGUAUGUGUGGGAGUAAGUGUCUUAGGAUAUCUAUGUUUUAAUUUAAGAGAAGGAAGAUUGUUGU [JMF's solution 71] (Eterna round: R96, puzzle: Same State NG 3)
- apparent KD of MS2 coat protein (input ligand: FMN 200 uM): 102 nM
- apparent KD of MS2 coat protein [4]: 102 nM
- apparent KD of MS2 coat protein (input ligand: none): 115 nM

Sequence: UGGUCUCACUUAGGAUAUUAGCACCGAAAGAGCUAAGAAGGAGGUGAAACUCUCACAUGAGGAUCACCCAUGUACACCCUAGGG [Eternabot solution 3] (Eterna round: R96, puzzle: Same State NG 1)
- apparent KD of MS2 coat protein (input ligand: FMN 200 uM): 162 nM
- apparent KD of MS2 coat protein [4]: 503 nM
- apparent KD of MS2 coat protein (input ligand: none): 1080 nM

Sequence: GUGGUCAGACAUGAGGAUCACCCAUGUGGAAUAAAUAACGUCAAGGAUAUACAAUAUAGGAUAUAGUAGAAGGUGAGAUUGGUG (Eterna round: R96, puzzle: Same State NG 3)
- apparent KD of MS2 coat protein [4]: 94.8 nM

Sequence: AAUAGUUGCGGGCAGGAUAUGUAUUAAAAUACAUGAGGAUCACCCAUGUGCGGGUAUAACACCCGACAGAAGGGCCAAUCGCGAC [Mat - Same State 2 - Mod of UCT - D94] (puzzle: Same State 2)
- apparent KD of MS2 coat protein [1]: 25.7 nM
- apparent KD of MS2 coat protein [2]: 216 nM
- apparent KD of MS2 coat protein [3]: 233 nM

Sequence: UUAAUGAUGAUAGGAUAUACAUGAGGAAUUCUCGUAGAAGGAUCAUGACAUGAGGAUCACCCAUGUAUCGCUCCGUAGAGCGUA [JL SSNG1 1.14] (Eterna round: R96, puzzle: Same State NG 1)
- apparent KD of MS2 coat protein (input ligand: FMN 200 uM): 934 nM
- apparent KD of MS2 coat protein [4]: 233 nM
- apparent KD of MS2 coat protein (input ligand: none): 676 nM

Sequence: UAUAAACAUGAGGAUCACCCAUGUAAUAAUAUGGGAGGAUAUCAGAAUUUAUUUAUUUAAUGAGAAGGCCUAAUAU [Mat - Same State 1 - Mod of Eli - D67] (Eterna round: R96, puzzle: Same State 1)
- apparent KD of MS2 coat protein [4]: 440 nM

Sequence: AUCAUUUAUGCAGGAUAUGAUUAACAUGAGGAUCACCCAUGUGGUGUUGUGAGUAAGGAGAGUGAUCAGAAGGGCAUUUUUUUU [JMF's solution 72] (Eterna round: R96, puzzle: Same State NG 2)
- apparent KD of MS2 coat protein (input ligand: FMN 200 uM): 476 nM
- apparent KD of MS2 coat protein [4]: 296 nM
- apparent KD of MS2 coat protein (input ligand: none): 482 nM

Sequence: GUUAAACAUGAGGAUCACCCAUGUAAUAAUAUGGGAGGAUAUCAGAAAUUAUGUAUGAAAUGAGAAGGCCUAAUUG [Mat - Same State 1 - Mod of Eli - D79] (puzzle: Same State 1)
- apparent KD of MS2 coat protein [1]: 89.8 nM
- apparent KD of MS2 coat protein [2]: 244 nM
- apparent KD of MS2 coat protein [3]: 198 nM

Sequence: UGUCCAGCCUGAGCUGGACAAAAGCAUGUACAUGAGGAUCACCCAUGUUCAUGUACAAGCUUUUUGCUCGUCUUAUC [salish99_208a_r3_057] (puzzle: Sensor for hsa-mir-208a)
- apparent KD of MS2 coat protein [1]: 401 nM
- apparent KD of MS2 coat protein [2]: 13.2 nM
- apparent KD of MS2 coat protein [3]: 526 nM

Sequence: CCGUAAAAUGGAGGAUAUGGAGCCUUAUUGGCUCCAGAAGGUCAUAAAACAUGAGGAUCACCCAUGUCGGCGGUCAAUAGACCG [Eli NG1ss - 78] (Eterna round: R96, puzzle: Same State NG 1)
- apparent KD of MS2 coat protein [4]: 31.5 nM

Sequence: CUUUAUCACUAUACAUGAGGAUCACCCAUGUUAUCAUCAUGAGAGGAUAUCGUAAUAGGAUUUUUCGAGAAGGCUCUAAAGUAU [JR_SSNG3_Sub078] (Eterna round: R96, puzzle: Same State NG 3)
- apparent KD of MS2 coat protein (input ligand: FMN 200 uM): 52.1 nM
- apparent KD of MS2 coat protein [4]: 167 nM
- apparent KD of MS2 coat protein (input ligand: none): 142 nM

Sequence: GGAGAGAGAGCACAGGAUAUUAGAGGAGAGACAUGAGGAUCACCCAUGUAAGAGAGAGAGGAGAGUGAGAAGGGUGAGAGAGAGG [Altered State 2-19 - Jieux - Same State 2] (puzzle: Same State 2)
- apparent KD of MS2 coat protein [1]: 241 nM
- apparent KD of MS2 coat protein [2]: 82.9 nM
- apparent KD of MS2 coat protein [3]: 213 nM

Sequence: GUGGUCAGACAUGAGGAUCACCCAUGUGGAAUAAAUAAGGAGAAGGAUAUGAAAUAUAGGAUAUAUCAGAAGGUCUGGUUGGUG (Eterna round: R96, puzzle: Same State NG 3)
- apparent KD of MS2 coat protein [4]: 59.9 nM

Sequence: UUCUCAUUUACAUGAGGAUCACCCAUGUUUUUUUGUAGGAAAUAGGAUAUAGGUCUCUCGUUUUACUAGAAGGAUUUCCUUAUU [JR_SSNG3_Sub090] (Eterna round: R96, puzzle: Same State NG 3)
- apparent KD of MS2 coat protein (input ligand: FMN 200 uM): 51.5 nM
- apparent KD of MS2 coat protein [4]: 38 nM
- apparent KD of MS2 coat protein (input ligand: none): 48.5 nM

Sequence: AAAAAACAUGAGGAUCACCCAUGUAAAAAAAACACAGGAUAUCCCUUUUUUAAAAAAAAAGGAGAAGGGUGAAAAA [Nob's Hobby 7 - Jieux - Same State 1] (Eterna round: R96, puzzle: Same State 1)
- apparent KD of MS2 coat protein [4]: 36.4 nM

Sequence: GGUCCGGCCUGAGCUGGACCGAAGCAUGUACAUGAGGAUCACCCAUGUUCAUGUGCAGGCUUUUUGCUCGUCUUGUG [JL-shm-2.05 JL mod] (puzzle: Sensor for hsa-mir-208a)
- apparent KD of MS2 coat protein [1]: 91.7 nM
- apparent KD of MS2 coat protein [2]: 12.7 nM
- apparent KD of MS2 coat protein [3]: 106 nM

Sequence: ACAUGAGGAUCACCCAUGUAUGCUCAGGAAACUGUGCAGCAUUAGGAUAUGGAUCCUAAUUGGAUCCAGAAGGAGUGAAUUAUU [Fiskers NG3ss - 26] (Eterna round: R96, puzzle: Same State NG 3)
- apparent KD of MS2 coat protein (input ligand: FMN 200 uM): 82.2 nM
- apparent KD of MS2 coat protein [4]: 117 nM
- apparent KD of MS2 coat protein (input ligand: none): 126 nM

Sequence: CGUACACAUGAGGAUCACCCAUGUCAGAUUUGGUCAGGAUAUGGGCGGCAUCCGCUAUUGCCAGAAGGGACUGUUG [JR_SS001_Sub703] (Eterna round: R96, puzzle: Same State 1)
- apparent KD of MS2 coat protein (input ligand: FMN 200 uM): 156 nM
- apparent KD of MS2 coat protein [4]: 43.4 nM
- apparent KD of MS2 coat protein (input ligand: none): 64.8 nM

Sequence: CUGACUUGUCAAGGAUAUCACGUCGAUUAGACGUGAGAAGGUGAUCUACACAUGAGGAUCACCCAUGUGUUACGUGGGAGUCAG [Brourd's SSNG1/1-A2 mod 20] (Eterna round: R96, puzzle: Same State NG 1)
- apparent KD of MS2 coat protein (input ligand: FMN 200 uM): 34.8 nM
- apparent KD of MS2 coat protein [4]: 69 nM
- apparent KD of MS2 coat protein (input ligand: none): 94.7 nM

Sequence: AGGGAGGAUGCAGGAUAUACAAGACAUGAGGAUCACCCAUGUACCUUGUGGAGAAGAAAGGAGAGGUAGAAGGGUAGUGAGGAA [Default title] (Eterna round: R96, puzzle: Same State NG 2)
- apparent KD of MS2 coat protein (input ligand: FMN 200 uM): 11.7 nM
- apparent KD of MS2 coat protein [4]: 13 nM
- apparent KD of MS2 coat protein (input ligand: none): 16.4 nM
